Test results taken from patent US20190194326A1.

How the values were obtained:
[1] = target: CD4 on chimp PBMC cells (chimp) (UniProt P16004); test: flow cytometry, chimp PBMC X282; 1st B4 binding, 2nd Leu3a exposure; Leu3a+ B4- population; competitor B4 pre-bound
[2] = target: CD4 on chimp PBMC cells (chimp) (UniProt P16004); test: flow cytometry, chimp PBMC X301; 1st B4 binding, 2nd Leu3a exposure; double stained population; competitor B4 pre-bound
[3] = target: CD4 on chimp PBMC cells (chimp) (UniProt P16004); test: flow cytometry, chimp PBMC X282; 1st B4 binding, 2nd Leu3a exposure; double stained population; competitor B4 pre-bound
[4] = target: CD4 on chimp PBMC cells (chimp) (UniProt P16004); test: flow cytometry, chimp PBMC X301; 1st B4 binding, 2nd Leu3a exposure; Leu3a+ B4- population; competitor B4 pre-bound
[5] = target: CD4 on chimp PBMC cells (chimp) (UniProt P16004); test: flow cytometry, chimp PBMC X282, single label control Leu3a-PE
[6] = target: CD4 on chimp PBMC cells (chimp) (UniProt P16004); test: flow cytometry, chimp PBMC X301, single label control Leu3a-PE
[7] = target: CD4 on chimp PBMC cells (chimp) (UniProt P16004); test: flow cytometry, chimp PBMC X301; 1st Leu3a binding, 2nd B4 exposure; Leu3a+ B4- population
[8] = target: CD4 on chimp PBMC cells (chimp) (UniProt P16004); test: flow cytometry, chimp PBMC X282; 1st Leu3a binding, 2nd B4 exposure; Leu3a+ B4- population

percent positive PBMC [1]: 0%
percent positive PBMC [2]: 3%
percent positive PBMC [3]: 1.2%
percent positive PBMC [4]: 0%
percent positive PBMC [5]: 25.5%
percent positive PBMC [6]: 44%
percent positive PBMC [7]: 0.3%
percent positive PBMC [8]: 0.1%
Substance: Leu3a (antibody)
